Experimental data reported in patent publication US20150147272A1, “RADIO-PHARMACEUTICAL COMPLEXES” (Algeta ASA, priority 2012, published 2015).
Values belong to the molecule of their own block, whether it stands above or below them.

Legend:
[1] = target: T1, CD33-positive HL-60 cells (Homo sapiens, UniProt P20138); assay: Binding to CD33-positive HL-60 cells by flow cytometry; details: compared with AGC0700
T1 construct: endogenous in cells; host or cells: HL-60 cells
Method: Binding to CD33-positive HL-60 cells were studied by flow cytometry. The determination of EC50 based on the plotted curve gives an approximate value for the affinity. The commercially available mouse anti human CD33 (BD Pharmingen; #555450, 1 mg/mL) was used as a reference antibody for assessment of the affinity, including a setup with a 50:50 mixture with the mAb to be analyzed. This assay was also used to confirm that target binding affinity was not negatively affected by conjugation with the chelator.
HL-60 cells were grown in Iscove's Modified Dulbecco's Medium (IMDM; Invitrogen; #12440-046) in the presence of 20% of fetal bovine serum and penicillin/streptomycin. Approximately 20 mL cell culture was harvested by centrifugation at 4° C. for 5 min at 300 g. […] Subsequently, 20 μL of the preparation of resuspended cells was diluted 1:500 in Coulter Isoton II Diluent, and counted using a Beckman Coulter Z2 instrument (Beckman Coulter; CA, USA). […]
The mAb or conjugate to be analyzed was prepared fresh form frozen stock by shifting the storage buffer to PBS, kept at 4° C., and used within a few days after preparation. […] All samples were analysed in 96-well round or conical bottom plates. Fluorescent signals were recorded on a Beckham Coulter Cell lab Quant SC flow cytometer (Beckman Coulter; CA, USA). […]

[2] = system: CD33 positive HL-60 cells; assay: Th-227-induced in vitro cell cytotoxicity (CellTiter-Glo ATP viability); assay type: cell-based, human; details: 3 nM or 0.3 nM, specific activity 44 kBq/μg, followed to day 7
Method: In vitro cell cytotoxicity was investigated in CD33 positive HL-60 cells. AGC0715 and the control trastuzumab conjugated AGC0015 were used to chelate Th-227 to a specific activity of 44 kBq/μg. HL-60 cells were grown at 37° C. with 5% CO2, and split 1:5 three times a week. The day before the assay the culture medium (Iscove's Modified Dulbecco's Medium (IMDM) with 20% FBS and 1% Penicillin/Streptomycin) was replaced by new medium and the volume adjusted to give 400 000 cells per mL.
About, 1 600 000 cell (4 mL) were added to each well in a 6 well plate. The plate was incubated until next day for addition of labelled mAb, or culture medium. After adding labelled mAb, or culture medium, the plate was incubated for 4 additional hours. In one experiment AGC0715 or trastuzumab-AGC0015 was added to each well to a final concentration of 3 nM. In another experiment the final concentration was 0.3 nM.
Following incubation, the cells were washed twice in culture medium, and the ATP in the supernatant and in the pellet was measured. The cells were then split 1:2 and incubated in culture medium at 37° C. with 5% CO2. The same procedure, but with only one wash, was repeated at days 2, 4, and 7.

T1 sequence (P20138 18-364): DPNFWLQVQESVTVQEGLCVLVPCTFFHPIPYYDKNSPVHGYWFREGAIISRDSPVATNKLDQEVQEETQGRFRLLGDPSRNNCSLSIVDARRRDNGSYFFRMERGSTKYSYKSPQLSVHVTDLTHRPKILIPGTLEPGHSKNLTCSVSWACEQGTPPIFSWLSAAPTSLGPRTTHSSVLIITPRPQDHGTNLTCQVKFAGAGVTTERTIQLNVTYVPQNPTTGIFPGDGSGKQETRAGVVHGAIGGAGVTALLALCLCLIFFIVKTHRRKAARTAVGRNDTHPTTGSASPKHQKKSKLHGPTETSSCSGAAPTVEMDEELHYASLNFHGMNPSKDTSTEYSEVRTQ

binding affinity [1]: comparable to the non-conjugated AGC0700
B1: AGC0715: AGC0700 conjugated to the water soluble chelator AGC0015 (12) (conjugate)
heavy: QVQLVQSGAEVKKPGSSVKVSCKASGYTFTDYNMHWVRQAPGQGLEWIGYIYPYNGGTGYNQKFKSKATITADESTNTAYMELSSLRSEDTAVYYCARGRPAMDYWGQGTLVTVSSASTKGPSVFPLAPSSKSTSGGTAALGCLVKDYFPEPVTVSWNSGALTSGVHTFPAVLQSSGLYSLSSVVTVPSSSLGTQTYICNVNHKPSNTKVDKKVEPKSCDKTHTCPPCPAPELLGGPSVFLFPPKPKDTLMISRTPEVTCVVVDVSHEDPEVKFNWYVDGVEVHNAKTKPREEQYNSTYRVVSVLTVLHQDWLNGKEYKCKVSNKALPAPIEKTISKAKGQPREPQVYTLPPSRDELTKNQVSLTCLVKGFYPSDIAVEWESNGGQPENNYKTTPPVLDSDGSFFLYSKLTVDKSRWQQGNVFSCSVMHEALHNHYTQKSLSLSPG
light: DIQMTQSPSSLSASVGDRVTITCRASESVDNYGISFMNWFQQKPGKAPKLLIYAASNQGSGVPSRFSGSGSGTDFTLTISSLQPDDFATYYCQQSKEVPWTFGQGTKVEIKRTVAAPSVFIFPPSDEQLKSGTASVVCLLNNFYPREAKVQWKVDNALQSGNSQESVTEQDSKDSTYSLSSTLTLSKADYEKHKVYACEVTHQGLSSPVTKSFNRGEC
modifications: chelator AGC0015 (12) conjugated; site not stated; none, one or two chelators on a chain

B2: AGC0715-Th-227: antibody-conjugate AGC0715 chelated with Th-227 (conjugate)
heavy: B1 heavy
light: B1 light
modifications: chelator AGC0015 (12) conjugated, chelating Th-227; site not stated
cellular toxicity (cell viability by ATP) [2]: resulted in cellular toxicity
